Target: the molecule itself
Assay: SDS-PAGE of outer membranes solubilised at 37 C or 100 C

B1: DsrA (Ducreyi Serum Resistance A protein) of H. ducreyi strain 35000 (other)
chain: QQPPKFAGVSSLYSYEYDYGKGKWTWSNEGGFDIKVPGIKMKPKEWISKQATYLELQHYMPYTPVLVTYAPGVSPSPILLYPMSDPDQLGINRQQLKLNLYSYFNDLRHDFKLKVLDARISKNKQNIDTISKYLLELGTYLDDSYRMMEQNTHNINKLSKELQTGLANQSALSMLVQPNGVGKTSVSAAVGGYRDKTALAIGVGSRITDRFTAKAGVAFNTYNGGMSYGASVGYEF
notes: In Western blots DsrA was denatured, from outer membranes or total cellular proteins; In the vitronectin experiment it was on whole surface-iodinated bacteria and was then solubilised in detergent; It forms multimers of unstated number; also called 30 kDa protein; 30 kDa band
binding result: binds
